Like-named read-outs stand apart in the source and are kept apart here.
Columns and labels:
[1] = target: RPA (wild-type, biotinylated on RPA3) (Homo sapiens, UniProt P27694;P15927;P35244 1-616;1-270;1-121); experiment: EMSA
Aro2 [2] = target: T1, Aro2 (Homo sapiens, UniProt P27694;P15927;P35244 1-616;1-270;1-121, F269A;F386A); experiment: smTIRFM
Aro2 [3] = target: T1, Aro2; experiment: smTIRFM; remark: listed apart in the source
AroB = AroB (Homo sapiens, UniProt P27694;P15927;P35244 1-616;1-270;1-121, W361A;F386A); experiment: smTIRFM
Chain of AroB (P27694 whole entry W361A/F386A, chain 1 of 3): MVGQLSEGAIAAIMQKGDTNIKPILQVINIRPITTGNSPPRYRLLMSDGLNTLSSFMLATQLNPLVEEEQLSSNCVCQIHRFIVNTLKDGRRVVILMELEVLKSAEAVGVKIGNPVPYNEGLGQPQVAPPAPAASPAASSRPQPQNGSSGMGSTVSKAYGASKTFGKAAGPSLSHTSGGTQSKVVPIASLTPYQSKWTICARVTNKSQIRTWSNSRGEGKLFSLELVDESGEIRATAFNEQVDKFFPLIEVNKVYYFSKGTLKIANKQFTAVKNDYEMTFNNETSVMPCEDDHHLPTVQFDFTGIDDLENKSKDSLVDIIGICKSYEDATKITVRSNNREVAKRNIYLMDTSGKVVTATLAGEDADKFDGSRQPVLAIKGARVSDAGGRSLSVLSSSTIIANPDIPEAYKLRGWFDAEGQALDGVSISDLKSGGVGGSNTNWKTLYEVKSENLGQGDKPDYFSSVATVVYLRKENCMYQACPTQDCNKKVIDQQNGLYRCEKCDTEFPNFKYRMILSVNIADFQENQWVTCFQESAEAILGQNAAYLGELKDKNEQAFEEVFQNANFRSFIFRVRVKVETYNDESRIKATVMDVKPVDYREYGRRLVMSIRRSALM
Chain of AroB (P15927 whole entry, chain 2 of 3): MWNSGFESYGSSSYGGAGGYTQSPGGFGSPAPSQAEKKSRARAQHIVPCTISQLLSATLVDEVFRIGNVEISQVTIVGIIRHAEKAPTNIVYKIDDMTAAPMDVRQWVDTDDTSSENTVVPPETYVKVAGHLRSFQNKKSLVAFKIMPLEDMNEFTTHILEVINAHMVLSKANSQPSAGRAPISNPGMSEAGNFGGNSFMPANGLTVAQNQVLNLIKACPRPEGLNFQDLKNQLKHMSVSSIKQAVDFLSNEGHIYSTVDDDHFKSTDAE
Chain of AroB (P35244 whole entry, chain 3 of 3): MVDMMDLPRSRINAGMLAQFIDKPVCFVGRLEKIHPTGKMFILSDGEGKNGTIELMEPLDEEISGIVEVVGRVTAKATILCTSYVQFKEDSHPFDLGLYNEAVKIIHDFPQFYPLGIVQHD

AroA = AroA (Homo sapiens, UniProt P27694;P15927;P35244 1-616;1-270;1-121, F238A;F269A); experiment: smTIRFM
Chain of AroA (P27694 whole entry F238A/F269A, chain 1 of 3): as the sequence (P27694 whole entry W361A/F386A, chain 1 of 3) above, with F238A, F269A, A361W, A386F counted along it
Chain of AroA (P15927 whole entry, chain 2 of 3): as the sequence (P15927 whole entry, chain 2 of 3) above
Chain of AroA (P35244 whole entry, chain 3 of 3): as the sequence (P35244 whole entry, chain 3 of 3) above

T1 sequence (P27694 whole entry F269A/F386A, chain 1 of 3): as the sequence (P27694 whole entry W361A/F386A, chain 1 of 3) above, with F269A, A361W counted along it
T1 sequence (P15927 whole entry, chain 2 of 3): as the sequence (P15927 whole entry, chain 2 of 3) above
T1 sequence (P35244 whole entry, chain 3 of 3): as the sequence (P35244 whole entry, chain 3 of 3) above
Chain of RPA (wild-type, biotinylated on RPA3) (P27694 whole entry, chain 1 of 3): as the sequence (P27694 whole entry W361A/F386A, chain 1 of 3) above, with A361W, A386F counted along it
Chain of RPA (wild-type, biotinylated on RPA3) (P15927 whole entry, chain 2 of 3): as the sequence (P15927 whole entry, chain 2 of 3) above
Chain of RPA (wild-type, biotinylated on RPA3) (P35244 whole entry, chain 3 of 3): as the sequence (P35244 whole entry, chain 3 of 3) above

B1: 20 nt Bubble DNA (mixed)
DNA 1: CCCTAGATACCAGTAAGCCTAAGGCCGGATCTCGGGCCATCCATGTACGC
DNA 2: GCGTACATGGATGGCTTAGAGCTTAATTCCGAATCTACTGGTATCTAGGG
B1: binds [1].

B2: dT20 (ssDNA)
DNA: TTTTTTTTTTTTTTTTTTTT
B2: binds (Aro2 [2]).

B3: dT15 (ssDNA)
DNA: TTTTTTTTTTTTTTT
B3: no binding (Aro2 [3]); no binding (AroB); no binding (AroA).

Reference: publication PMC4937323
